This note sets out measurements from PMC2132786.

Common to all, as to assay: sucrose density gradient sedimentation
Assay [1] has as its target L80P mutant hemagglutinin (X:31 strain, HA2 L80P) (influenza virus, X:31 strain) (UniProt P03437).
Assay [2] addresses S71P mutant hemagglutinin (X:31 strain, HA2 S71P) (influenza virus, X:31 strain) (UniProt P03437).
Assay [3] addresses V55P/S71P double proline mutant hemagglutinin (X:31 strain, HA2 V55P and S71P) (influenza virus, X:31 strain) (UniProt P03437).

Usually stoichiometry N stands for a count of units in the complex or per binding partner. “L80P mutant hemagglutinin (X:31 strain, HA2 L80P) (from UniProt P03437 17-344) (natural protein)” yielded a stoichiometry N in assay [1] of 3.
In turn, “S71P mutant hemagglutinin (X:31 strain, HA2 S71P) (from UniProt P03437 17-344) (natural protein)” had a stoichiometry N in assay [2] of 3.
“V55P/S71P double proline mutant hemagglutinin (X:31 strain, HA2 V55P and S71P) (from UniProt P03437 17-344) (natural protein)” yielded a stoichiometry N in assay [3] of 3.
